Here are results for one molecule from patent publication US20220088134A1 (REGENTS OF THE UNIVERSITY OF MINNESOTA, published 2022).

This test addresses human CD200 activation receptors (CD200AR) (human). Put plainly: cell-based or functional assay.

In the case of Ac-CLFNTFGFGAISGTA-NH2 [human CD200AR-L peptide P4A10], the “T-cell secretion of IFNγ after treatment of iDCs with P4A10” value came out at 5.4 fold, the “T-cell secretion of IL6 after treatment of iDCs with P4A10” value stood at 5.6 fold, the “T-cell secretion of RANTES after treatment of iDCs with P4A10” value came out at 16.3 fold and the “T-cell secretion of TNFα after treatment of iDCs with P4A10” value was 16.6 fold.
